Where a chain is given by its changes, count along the chain named.
T1: NaPi2b expressed on IGROV-1 cells (Homo sapiens, UniProt O95436)
T1 construct: IGROV-1 cells express endogenous NaPi2b at a high level; endogenous in cells; host or cells: IGROV-1
T1 sequence (O95436 1-690): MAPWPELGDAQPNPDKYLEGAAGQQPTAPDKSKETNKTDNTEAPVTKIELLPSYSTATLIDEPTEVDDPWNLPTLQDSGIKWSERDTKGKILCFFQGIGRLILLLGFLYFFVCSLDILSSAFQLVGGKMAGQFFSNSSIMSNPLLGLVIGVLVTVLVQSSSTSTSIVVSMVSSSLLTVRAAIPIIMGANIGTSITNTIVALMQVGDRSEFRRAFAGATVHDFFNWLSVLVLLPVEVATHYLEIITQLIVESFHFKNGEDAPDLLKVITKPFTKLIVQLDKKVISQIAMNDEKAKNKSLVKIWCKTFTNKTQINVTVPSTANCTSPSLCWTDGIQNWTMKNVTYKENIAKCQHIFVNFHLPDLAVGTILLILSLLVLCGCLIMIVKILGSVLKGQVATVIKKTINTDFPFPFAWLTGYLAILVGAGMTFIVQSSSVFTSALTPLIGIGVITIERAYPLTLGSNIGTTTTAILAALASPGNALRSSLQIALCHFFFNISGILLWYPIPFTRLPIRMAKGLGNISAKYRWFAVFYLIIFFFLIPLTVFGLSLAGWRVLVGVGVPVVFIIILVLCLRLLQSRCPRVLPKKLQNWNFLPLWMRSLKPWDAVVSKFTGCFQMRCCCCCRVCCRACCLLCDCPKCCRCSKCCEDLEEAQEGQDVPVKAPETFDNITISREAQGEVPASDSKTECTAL

B1: v29451: humanized anti-NaPi2b IgG1/kappa antibody H2L3; VH SEQ ID NO:25, VL SEQ ID NO:30 (antibody, V domains shown)
VH: QVQLVQSGAEVKKPGASVKVSCKASGFTFTSYNVHWVRQAPGQGLEWIAAISPGNGDLSYAQKFQGRVTMTVDTSTSTVYMELSSLRSEDTAVYYCARGRTGMGAVDYWGQGTLVTVSS
VL: DVQMTQSPSSLSASVGDRVTITCRASQDVYSYLNWYQQKPGKAVKLLIYYTSRLQSGVPSRFSGSGSGTDYTLTISSLQPEDIATYYCQQYNIFPWTFGQGTKLEIK
modifications: v29451, v29455, v29459 VH (H2); v29449, v29450, v29451, v29452 VL (L3)
B2: v29458: humanized anti-NaPi2b IgG1/kappa antibody H3L1; VH SEQ ID NO:26, VL SEQ ID NO:28 (antibody, V domains shown)
VH: B1 VH with V20M, V68A, M70L, V79A
VL: B1 VL with V2I, V44P, Y71F, I83F
modifications: v29450, v29454, v29458 VH (H3); v29457, v29458, v29459, v29460 VL (L1)
B3: v29450: humanized anti-NaPi2b IgG1/kappa antibody H3L3; VH SEQ ID NO:26, VL SEQ ID NO:30 (antibody, V domains shown)
VH: B1 VH with V20M, V68A, M70L, V79A
VL: B1 VL
modifications: v29450, v29454, v29458 VH (H3); v29449, v29450, v29451, v29452 VL (L3)
B4: v29460: humanized anti-NaPi2b IgG1/kappa antibody H1L1; VH SEQ ID NO:24, VL SEQ ID NO:28 (antibody, V domains shown)
VH: B1 VH with I48M, A49G, V72R
VL: B1 VL with V2I, V44P, Y71F, I83F
modifications: v29452, v29456, v29460 VH (H1); v29457, v29458, v29459, v29460 VL (L1)
B5: v29457: humanized anti-NaPi2b IgG1/kappa antibody H4L1; VH SEQ ID NO:27, VL SEQ ID NO:28 (antibody, V domains shown)
VH: B1 VH with V20M, V68A, M70L, T74R, V79A
VL: B1 VL with V2I, V44P, Y71F, I83F
modifications: v29449, v29453, v29457 VH (H4); v29457, v29458, v29459, v29460 VL (L1)
B6: v29459: humanized anti-NaPi2b IgG1/kappa antibody H2L1; VH SEQ ID NO:25, VL SEQ ID NO:28 (antibody, V domains shown)
VH: B1 VH
VL: B1 VL with V2I, V44P, Y71F, I83F
modifications: v29451, v29455, v29459 VH (H2); v29457, v29458, v29459, v29460 VL (L1)
B7: v29455: humanized anti-NaPi2b IgG1/kappa antibody H2L2; VH SEQ ID NO:25, VL SEQ ID NO:29 (antibody, V domains shown)
VH: B1 VH
VL: B1 VL with I83F
modifications: v29451, v29455, v29459 VH (H2); v29453, v29454, v29455, v29456 VL (L2)
B8: v29449: humanized anti-NaPi2b IgG1/kappa antibody H4L3; VH SEQ ID NO:27, VL SEQ ID NO:30 (antibody, V domains shown)
VH: B1 VH with V20M, V68A, M70L, T74R, V79A
VL: B1 VL
modifications: v29449, v29453, v29457 VH (H4); v29449, v29450, v29451, v29452 VL (L3)
B9: v29453: humanized anti-NaPi2b IgG1/kappa antibody H4L2; VH SEQ ID NO:27, VL SEQ ID NO:29 (antibody, V domains shown)
VH: B1 VH with V20M, V68A, M70L, T74R, V79A
VL: B1 VL with I83F
modifications: v29449, v29453, v29457 VH (H4); v29453, v29454, v29455, v29456 VL (L2)
B10: v29454: humanized anti-NaPi2b IgG1/kappa antibody H3L2; VH SEQ ID NO:26, VL SEQ ID NO:29 (antibody, V domains shown)
VH: B1 VH with V20M, V68A, M70L, V79A
VL: B1 VL with I83F
modifications: v29450, v29454, v29458 VH (H3); v29453, v29454, v29455, v29456 VL (L2)

system: not listed separately; assay: Thermal stability by differential scanning calorimetry (DSC); assay type: physicochemical; settings: 0.4 mg/mL in PBS, scan 20° C. to 100° C. at 60° C./hr
Procedure: The thermal stability of the humanized antibody variants was assessed by differential scanning calorimetry (DSC) as described below.
400 μL of purified samples primarily at concentrations of 0.4 mg/mL in PBS were used for DSC analysis with a VP-Capillary DSC (Malvern Panalytical Inc., Westborough, MA). At the start of each DSC run, 5 buffer blank injections were performed to stabilize the baseline, and a buffer injection was placed before each sample injection for referencing. Each sample was scanned from 20° C. to 100° C. at a 60° C./hr rate, with low feedback, 8 sec filter, 3 min pre-scan thermostat, and 70 psi nitrogen pressure. The resulting thermograms were referenced and analyzed using Origin 7 software (OriginLab Corporation, Northampton, MA) to determine melting temperature (Tm) as an indicator of thermal stability.

Molecule | Fab Tm [°C]
B1 | 83.0
B2 | 81.6
B3 | 81.0
B4 | 80.3
B5 | 80.5
B6 | 83.1
B7 | 81.5
B8 | 80.0
B9 | 78.9
B10 | 79.7

molecular target: T1, NaPi2b expressed on IGROV-1 cells; assay: Cellular binding of bivalent antibodies to IGROV-1 cells by flow cytometry (Example 13); settings: IGROV-1, 24 hours at 4° C.; NB = no cellular binding
Procedure: IGROV-1 cells express endogenous NaPi2b at a high level.
Briefly, cells were seeded at 50,000 cells/well in conical-bottom 96-well plates and treated with test antibody for 24 hours at 4° C. to prevent internalization. Palivizumab (anti-RSV antibody, v22277) was included as a negative control. […] Following incubation, cells were washed and stained with anti-Human IgG Fc AF647 conjugate (Jackson Immuno Research Labs, West Grove, PA; Cat. No. 109-605-098) at 4° C. for 30 min. Following incubation and washing, fluorescence was detected by flow cytometry on a BD LSRFortessa™ Cell Analyzer (BD Biosciences, Franklin Lake, NJ) with 1,000 minimum events collected per well. The AF647/APC-A GeoMean (fluorescence signal geometric mean, proportional to anti-Human AF647 binding) was calculated for the live cell population using FlowJo™ Version 10.8.1 (BD Biosciences, Franklin Lake, NJ) and plotted for each test antibody using GraphPad Prism Version 9 (GraphPad Software, San Diego, CA).

Bmax (MFI) | Curve Hill Slope (h) | Molecule
46,170 MFI | 1.1 | B1
40,793 MFI | 1.1 | B2
43,809 MFI | 1.2 | B3
40,071 MFI | 1.2 | B4
44,539 MFI | 1.0 | B5
40,941 MFI | 1.2 | B6
41,917 MFI | 1.1 | B7
44,460 MFI | 1.3 | B8
44,480 MFI | 1.2 | B9
42,278 MFI | 1.0 | B10

From patent US20250277030A1, “ANTI-NAPI2B ANTIBODIES AND METHODS OF USE” (Zymeworks BC Inc., priority 2022, published 2025)
